Values quoted from earlier work in US11845786B2, “Peptides inhibiting KLK1, KLK4, or KLK4 and KLK8” (Daiichi Sankyo Company, Limited, priority 2017, dated 2023).

T1: KLK12 (Homo sapiens, UniProt Q9UKR0)
T1 sequence (Q9UKR0 18-248): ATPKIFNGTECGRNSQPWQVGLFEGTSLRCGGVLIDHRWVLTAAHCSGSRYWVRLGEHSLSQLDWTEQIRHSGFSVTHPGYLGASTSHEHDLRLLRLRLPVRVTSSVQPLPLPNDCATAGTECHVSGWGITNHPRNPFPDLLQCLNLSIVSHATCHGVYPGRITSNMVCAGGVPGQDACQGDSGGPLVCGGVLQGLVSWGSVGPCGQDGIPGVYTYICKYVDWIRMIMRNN

T2: KLK13 (Homo sapiens, UniProt Q9UKR3)
T2 sequence (Q9UKR3 17-277): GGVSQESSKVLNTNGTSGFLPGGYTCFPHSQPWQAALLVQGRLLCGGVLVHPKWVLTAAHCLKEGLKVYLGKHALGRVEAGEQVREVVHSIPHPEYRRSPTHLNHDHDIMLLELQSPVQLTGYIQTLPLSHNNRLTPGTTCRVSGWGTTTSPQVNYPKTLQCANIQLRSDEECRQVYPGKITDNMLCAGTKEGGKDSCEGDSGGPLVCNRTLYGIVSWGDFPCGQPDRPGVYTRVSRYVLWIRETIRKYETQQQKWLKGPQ

T3: KLK8 (Homo sapiens, UniProt O60259)
T3 sequence (O60259 33-260): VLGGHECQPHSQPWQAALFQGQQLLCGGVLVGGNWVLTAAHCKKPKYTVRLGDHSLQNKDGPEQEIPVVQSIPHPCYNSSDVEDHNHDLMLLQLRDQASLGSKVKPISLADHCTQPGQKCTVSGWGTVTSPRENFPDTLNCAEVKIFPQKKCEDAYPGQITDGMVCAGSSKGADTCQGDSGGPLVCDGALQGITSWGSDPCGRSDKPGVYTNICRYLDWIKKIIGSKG


Assays:
KLK12 = molecular target: T1, KLK12; conditions: Non Patent Literature 5
KLK13 = molecular target: T2, KLK13; conditions: Non Patent Literature 5
KLK4 = KLK4 (Homo sapiens, UniProt Q9Y5K2); conditions: Non Patent Literature 5
Sequence of KLK4 (Q9Y5K2 31-254): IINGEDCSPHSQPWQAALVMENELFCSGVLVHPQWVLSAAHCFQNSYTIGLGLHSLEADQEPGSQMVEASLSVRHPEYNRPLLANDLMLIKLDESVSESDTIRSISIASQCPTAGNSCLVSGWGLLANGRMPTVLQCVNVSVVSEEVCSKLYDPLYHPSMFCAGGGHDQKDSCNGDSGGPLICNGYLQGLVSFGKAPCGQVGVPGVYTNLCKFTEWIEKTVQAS

KLK8 = molecular target: T3, KLK8; conditions: Non Patent Literature 7

Molecule	Ki (KLK12) [nM]	Ki (KLK13) [nM]	Ki (KLK4) [nM]	KLK8 inhibitory activity (KLK8)
SPINK6: human serine protease of Kazal-type 6, natural KLK4 inhibitor of low specificity (QGGQVDCGEFQDPKVYCTRESNPHCGSDGQTYGNKCAFCKAIVKSGGKISLKHPGKC; UniProt Q6UWN8 24-80, looked up)	1	1	27	
SPINK9: human serine protease of Kazal-type 9, reported to have KLK8 inhibitory activity (protein, UniProt Q5DT21 20-86, looked up) Serine protease inhibitor …: IECAKQTKQMVDCSHYKKLPPGQQRFCHHMYDPICGSDGKTYKNDCFFCSKVKKTDGTLKFVHFGKC				very weak
